# B1: FCHO1 μHD (purified, not on beads) [human] / EPS15 616–638 peptide [human] (parent complex)
# chain 1: HGVSRGPSPVVLGSQDALPIATAFTEYVHAYFRGHSPSCLARVTGELTMTFPAGIVRVFSGTPPPPVLSFRLVHTTAIEHFQPNADLLFSDPSQSDPETKDFWLNMAALTEALQRQAEQNPTASYYNVVLLRYQFSRPGPQSVPLQLSAHWQCGATLTQVSVEYGYRPGATAVPTPLTNVQILLPVGEPVTNVRLQPAATWNLEEKRLTWRLPDVSEAGGSGRLSASWEPLSGPSTPSPVAAQFTSEGTTLSGVDLELVGSGYRMSLVKRRFATGMYLVSC
# chain 2: NLDFFQSDPFVGSDPFKDDPFGK
# Variants of: B1
# Experiment: ITC; parent: 2.7e+03 nM
row,Variant,Kd [µM]
1,"chain 1 HGVSRGPSPVVLGSQDALPIATAFTEYVHAYFRGHSPSCLARVTGELTMTFPAGIVRVFSGTPPPPVLSFRLVHTTAIEHFQPNADLLFSDPSQSDPETKDFWLNMAALTEALQRQAEQNPTASYYNVVLLRYQFSRPGPQSVPLQLSAHWQCGATLTQVSVEYGYRPGATAVPTPLTNVQILLPVGEPVTNVRLQPAATWNLEEKRLTWRLPDVSEAGGSGRLSASWEPLSGPSTPSPVAAQFTSEGTTLSGVDLELVGSGYAMGLVKRRFATGMYLVSC [chain 1 R264A, chain 1 S266G]",77.4
2,chain 1 HGVSRGPSPVVLGSQDALPIATAFTEYVHAYFRGHSPSCLARVTGELTMTFPAGIVRVFSGTPPPPVLSFRLVHTTAIEHFQPNADLLFSDPSQSDPETKDFWLNMAALTEALQRQAEQNPTADYYNVVLLRYQFSRPGPQSVPLQLSAHWQCGATLTQVSVEYGYRPGATAVPTPLTNVQILLPVGEPVTNVRLQPAATWNLEEKRLTWRLPDVSEAGGSGRLSASWEPLSGPSTPSPVAAQFTSEGTTLSGVDLELVGSGYRMSLVKRRFATGMYLVSC [chain 1 S124D],9.1
3,chain 1 HGVSRGPSPVVLGSQDALPIATAFTEYVHAYFRGHSPSCLARVTGELTMTFPAGIVRVFSGTPPPPVLSFRLVHTTAIEHFQPNADLLFSDPSQSDPETKDFWLNMAALTEALQRQAEQNPTASYYNVVLLRYQFSRPGPQSVPLQLSAHWQCGATLTQVSVEYGYRPGATAVPTPLTNVQILLPVGEPVTNVRLQPAATWNLEEKRLTWRLPDVSEAGGSGRLSASWEPLSGPSTPSPVAAQFTSEGTTLSGVDLELVGSGYMMSLVKRRFATGMYLVSC [chain 1 R264M],19.6

# Source: paper PMC4921775, “Transient Fcho1/2⋅Eps15/R⋅AP-2 Nanoclusters Prime the AP-2 Clathrin Adaptor for Cargo Binding” (Developmental Cell, 2016)
